From doi:10.1101/2024.09.25.614892 (bioRxiv, 2024) come the findings set out here.

B5: FliC (flagellin) of Salmonella enterica (natural protein, UniProt P06179 1-495, looked up)
chain: MAQVINTNSLSLLTQNNLNKSQSALGTAIERLSSGLRINSAKDDAAGQAIANRFTANIKGLTQASRNANDGISIAQTTEGALNEINNNLQRVRELAVQSANSTNSQSDLDSIQAEITQRLNEIDRVSGQTQFNGVKVLAQDNTLTIQVGANDGETIDIDLKQINSQTLGLDTLNVQQKYKVSDTAATVTGYADTTIALDNSTFKASATGLGGTDQKIDGDLKFDDTTGKYYAKVTVTGGTGKDGYYEVSVDKTNGEVTLAGGATSPLTGGLPATATEDVKNVQVANADLTEAKAALTAAGVTGTASVVKMSYTDNNGKTIDGGLAVKVGDDYYSATQNKDGSISINTTKYTADDGTSKTALNKLGGADGKTEVVSIGGKTYAASKAEGHNFKAQPDLAEAAATTTENPLQKIDAALAQVDTLRSDLGAVQNRFNSAITNLGNTVNNLTSARSRIEDSDYATEVSNMSRAQILQQAGTSVLAQANQVPQNVLSLLR

Common to all, as to assay: cryo-EM structure
Data set [1] deals with the molecule itself.
In data set [2] the target is B5.
Data set [3] concerns the molecule itself. This is another data set of the same source.
In data set [4] the target is B5. This is another data set of the same source.
Data set [5] deals with the molecule itself. This is another data set of the same source.

Where two headings read alike, the source gives them in different places.

B1: FlgL (hook-filament junction protein) of Campylobacter jejuni (natural protein, UniProt A0A5T0WDM5 1-750, looked up)
chain: MRITNKLNFTNSVNNSMGGQSALYQISQQLASGLKIQNSYEDASTYIDNTRLEYEIKTLEQVKESTSRAQEMTQNSMKALQDMVKLLEDFKVKVTQAASDSNSQTSREAIAKELERIKESIVQLANTSVNGQYLFAGSQVANKPFDSNGNYYGDKNNINVVTGAGTESPYNIPGWDLFFKADGDYKKQISTNVSFTDNRWDLNKDPDKTKYLTGDSKWQQLIGQGYVKDNSLDADKDFEYDDSKLDFPPTTLYVQGTKPDGTSFKSAVLVKPEDTLEDVMENIGALYGNTPNNKVVEVSMNDSGQIQITDLKQGNNKLDFHAVAFTPQADTKDELKNIIEAANQEGISMNEVTNRVMQAATAAPSNGDITKLNNPVTVTINNQQFTIDLKQTDFIKSKMTDTDGNAANGADYDNVYFEKNGNTVYGNVSQVIKGSNAYATDSTKLSEVMAGDSLNGTTLNLKVNSKGGNSYDVTINLQTSTVSYPDPNNPGQTISFPIMHTNPATGNSGVVTGSNDITYGQINDIIGMFAADKIPTTTIQANNGQINNADYTQIQQLMKDSQATVDVSMDYKGRISVTDKLSSGTNIEISLSDSQSGQFPAPPFTTTSTVQNGPNFSFSANNSLTIDEPNVDIIKDLDSMIDAVLKGNMRADSESENPRNTGMQGALERLDHLADHVSKLNTTMGAYHNTIEGVNTRTSFLSVNVQSIKSNVIDVDYGEAMMNLMQVQLAYQASLKASTTISQLSLLNYM
B1: the “stoichiometry N” value in “cryo-EM structure [1]” was found to be 11 subunits.

B2: FlgL (hook-filament junction protein) of Salmonella enterica (natural protein, UniProt P16326 1-317, looked up)
chain: MRISTQMMYEQNMSGITNSQAEWMKLGEQMSTGKRVTNPSDDPIAASQAVVLSQAQAQNSQYALARTFATQKVSLEESVLSQVTTAIQTAQEKIVYAGNGTLSDDDRASLATDLQGIRDQLMNLANSTDGNGRYIFAGYKTEAAPFDQATGGYHGGEKSVTQQVDSARTMVIGHTGAQIFNSITSNAVPEPDGSDSEKNLFVMLDTAIAALKTPVEGNNVEKEKAAAAIDKTNRGLKNSLNNVLTVRAELGTQLSELSTLDSLGSDRALGQKLQMSNLVDVDWNSVISSYVMQQAALQASYKTFTDMQGMSLFQLNR
As for B2, in data set [2], the binding result is listed as “binds”. Further, in the data set “cryo-EM structure [3]”, the “stoichiometry N” value amounted to 11 subunits.

B3: FlgK (hook-filament junction protein) of Salmonella enterica (natural protein, UniProt P0A1J5 1-553, looked up)
chain: MSSLINHAMSGLNAAQAALNTVSNNINNYNVAGYTRQTTILAQANSTLGAGGWIGNGVYVSGVQREYDAFITNQLRGAQNQSSGLTTRYEQMSKIDNLLADKSSSLSGSLQSFFTSLQTLVSNAEDPAARQALIGKAEGLVNQFKTTDQYLRDQDKQVNIAIGSSVAQINNYAKQIANLNDQISRMTGVGAGASPNDLLDQRDQLVSELNKIVGVEVSVQDGGTYNLTMANGYTLVQGSTARQLAAVPSSADPTRTTVAYVDEAAGNIEIPEKLLNTGSLGGLLTFRSQDLDQTRNTLGQLALAFADAFNAQHTKGYDADGNKGKDFFSIGSPVVYSNSNNADKTVSLTAKVVDSTKVQATDYKIVFDGTDWQVTRTADNTTFTATKDADGKLEIDGLKVTVGTGAQKNDSFLLKPVSNAIVDMNVKVTNEAEIAMASESKLDPDVDTGDSDNRNGQALLDLQNSNVVGGNKTFNDAYATLVSDVGNKTSTLKTSSTTQANVVKQLYKQQQSVSGVNLDEEYGNLQRYQQYYLANAQVLQTANALFDALLNIR
As for B3, in the data set “cryo-EM structure [3]”, the “stoichiometry N” value amounted to 11 subunits.

B4: FlgE (flagellar hook protein) of Salmonella enterica (natural protein, UniProt P0A1J1 1-403, looked up)
chain: MSFSQAVSGLNAAATNLDVIGNNIANSATYGFKSGTASFADMFAGSKVGLGVKVAGITQDFTDGTTTNTGRGLDVAISQNGFFRLVDSNGSVFYSRNGQFKLDENRNLVNMQGMQLTGYPATGTPPTIQQGANPAPITIPNTLMAAKSTTTASMQINLNSTDPVPSKTPFSVSDADSYNKKGTVTVYDSQGNAHDMNVYFVKTKDNEWAVYTHDSSDPAATAPTTASTTLKFNENGILESGGTVNITTGTINGATAATFSLSFLNSMQQNTGANNIVATNQNGYKPGDLVSYQINNDGTVVGNYSNEQEQVLGQIVLANFANNEGLASQGDNVWAATQASGVALLGTAGSGNFGKLTNGALEASNVDLSKELVNMIVAQRNYQSNAQTIKTQDQILNTLVNLR
For B4, in the data set “cryo-EM structure [3]”, the binding result was “binds”.
Same read-out and setting: with B5 the entry was “binds”.

B6: FliD (flagellar filament cap protein) of Campylobacter jejuni (natural protein, UniProt Q9PHW6 1-642, looked up)
chain: MAFGSLSSLGFGSGVLTQDTIDKLKEAEQKARIDPYTKKIEENTTKQKDLTEIKTKLLSFQTAVSSLADATVFAKRKVVGSISDNPPASLTVNSGVALQSMNINVTQLAQKDVYQSKGLANDGGFVNAQLNGTADLTFFSNGKEYTVTVDKNTTYRDLADKINEASGGEIVAKIVNTGEKGTPYRLTLTSKETGEDSAISFYAGKKDSNGKYQKDINAEKIFDDLGWGLDVSASIDPDKDKKGYGIKDASLHIQTAQNAEFTLDGIKMFRSSNTVTDLGVGMTLTLNKTGEINFDVQQDFEGVTKAMQDLVDAYNDLVTNLNAATDYNSETGTKGTLQGISEVNSIRSSILADLFDSQVVDGTTEDANGNKVNTKVMLSMQDFGLSLNDAGTLSFDSSKFEQKVKEDPDSTESFFSNITKYEDINHTGEVIKTGSLSKYLNSNGGNTNGLEFKPGDFTIVFNNQTYDLSKNSDGTNFKLTGKTEEELLQNLANHINSKGIEGLKVKVESYNQNNVTGFRLNFSGDGSSDFSIKGDANILKELGLSDVNITSKPIEGKGIFSKLKATLQEMTGKDGSITKYDESLTNDIKSLNTSKDSTQAMIDTRYDTMANQWLQYESILNKLNQQLNTVTNMINAANNSNN
On to B6, for which, in the data set “cryo-EM structure [1]”, the “stoichiometry N” value worked out at 5 subunits.

B7: FliD (flagellar filament cap protein) of Salmonella enterica (natural protein, UniProt P16328 1-467, looked up)
chain: MASISSLGVGSNLPLDQLLTDLTKNEKGRLTPITKQQSANSAKLTAYGTLKSALEKFQTANTALNKADLFKSTVASSTTEDLKVSTTAGAAAGTYKINVTQLAAAQSLATKTTFATTKEQLGDTSVTSRTIKIEQPGRKEPLEIKLDKGDTSMEAIRDAINDADSGIAASIVKVKENEFQLVLTANSGTDNTMKITVEGDTKLNDLLAYDSTTNTGNMQELVKAENAKLNVNGIDIERQSNTVTDAPQGITLTLTKKVTDATVTVTKDDTKAKEAIKSWVDAYNSLVDTFSSLTKYTAVEPGEEASDKNGALLGDSVVRTIQTGIRAQFANSGSNSAFKTMAEIGITQDGTSGKLKIDDDKLTKVLKDNTAAARELLVGDGKETGITTKIATEVKSYLADDGIIDNAQDNVNATLKSLTKQYLSVSNSIDETVARYKAQFTQLDTMMSKLNNTSSYLTQQFTAMNKS
For the molecule B7, the binding result in data set [4] is “binds”. Moreover, the “stoichiometry N” value in “cryo-EM structure [5]” worked out at 5 subunits.

B8: FlgK (hook-filament junction protein) of Campylobacter jejuni (natural protein, UniProt Q0P8E9 1-608, looked up)
chain: MGIFGTLYTGVTGLKASEVQIATTGNNISNANATFYTRQRVVQTTNGYITTGGVQVGTGTAVESIVRLHDEYSYYKLKGASTQLEYTKYMASTLQEIAQRFPDLQNTGILQDLENYNKAWNDFASNPNENATKIALVKASQTLTESVNNTFATLDKIQKKVNDDIKNTVDEINRIGEEIATINKQIYGQEALPTEHANELRDRRDELELTLSKLVSAVASKNEINQDNRLDTTITDPGHQYNLSIEGFSIVDGINFHPLKLDYDDKNKSYSIYYETPDEKVRDLTAKISGGQLGAQLDLRGRNYSKSEGKYEDGIIQGYMDSLDTFAKTMINETNNLYASSAKSSVTSDYLSGLKGDIPLVNYDRTIQPGSFDIVIYDDKGDKKLTKTITIDVNTTMNDIMRQINANTDDNDNKNSNDDVDDHINASFSYDAKTGDGLFQINAKSGFKVAIEDKGTNFAGAFSIGGFFSGTDASDMKVKDSILNDPSTVRASSNGVDSGNDMANKIIQLQYKKVNFYNEDGTIDNLTMEEYYRKLTGKIASDGENNNVVNSSNETLYNSVYSEYQSKSGVNTNEELAALIQYQSSYGAAAKIVSTVDQMLDTLLGLKS
Consider B8, for which the “stoichiometry N” value in the data set “cryo-EM structure [1]” was 11 subunits.

Broadly, the stoichiometry N is the number of molecules, sites or subunits per partner or assembly.
